For six substances, other results are on record in PMC8423243.

Read-outs that look alike come from different tables or passages of the source.

On to “BG505 Env (BG505 SOSIP trimer and BG505 T332N virus): N611A (virus)”, for which the other result (N-glycosylation at N611) is “increases”.

In the case of “BG505 Env (BG505 SOSIP trimer and BG505 T332N virus): deletion of the N611 PNGS (N611A virus)”, the other entry (N-glycosylation at N611) is recorded as “no change”.

As to “BG505 Env P291T (virus) / P291S (SOSIP) variant: P291T (PNGS knock-in at N289; direction given for knock-in relative to parental BG505)”, the other entry (N-glycosylation at N289) was “abolishes”.

Take “BG505 Env P291T (virus) / P291S (SOSIP) variant: P291T and S241N + P291T (PNGS knock-ins; direction given for knock-in relative to parental BG505)”: under “N-glycosylation at N289”, the other entry is listed as “decreases”.

For the substance “BG505 Env S241N variant (SOSIP and virus): S241N (PNGS knock-in; direction given for knock-in relative to parental BG505)”, the other entry (N-glycosylation at N241) is listed as “abolishes”.

Turning to “BG505 Env S241N variant (SOSIP and virus): S241N + P291T (double PNGS knock-in; direction given for knock-in relative to parental BG505)”, the other result (N-glycosylation at N241) is recorded as “abolishes”.
